Reference: patent US20230331827A1, “POTASSIUM CHANNEL INHIBITORS” (priority 2017, published 2023)
Like-named read-outs stand apart in the source and are kept apart here.

Legend:
Assay type in all cases: cell-based
huKv1.3 = target: T1, huKv1.3 (Homo sapiens, UniProt P22001); assay: QPatch automated whole-cell patch-clamp, CHO cells stably expressing huKv1.3 (Example 8); conditions: Kv1.3 channels, IgG KnotBody, Table 11A
T1 construct: host or cells: CHO
Method: Knottin Kv 1.3 and ASIC1a blockers expressed in the KnotBody format (see examples 6 and 7) were tested for their ability to inhibit the function of the ion channel targets. The effect of these KnotBodies on cells expressing the human Kv 1.3 (huKv1.3) or human ASIC1a channels was assessed using QPatch automated whole-cell patch-clamp electrophysiology (Sophion).
For the testing of Kv1.3, CHO cells stably expressing huKv1.3 (Charles River Lab) were analysed using the QPatch electrophysiology assay in the presence or absence of the KnotBody fusions or the antibody isotypes (negative) controls. Internal and external physiological solutions were freshly prepared prior to the assay. The extracellular solution contained 145 mM NaCl, 4 mM KCl, 2 mM CaCl2, 1 mM MgCl2, 10 mM HEPES and 10 mM glucose; the pH was adjusted to 7.4 with NaOH; the osmolarity was ~ 305 mOsm/L. The intracellular solution contained: KF (120 mM), KCl (20 mM), HEPES (10 mM) and EGTA (10 mM); the pH was adjusted to 7.2 with KOH; osmolarity was ~ 320 mOsm/L.
A series of depolarising voltage (channel activating) pulses were used to monitor the channel currents upon adding control (extracellular solution) to define a control baseline of current activity. To these measured control currents ascending concentrations of KnotBodies or parental antibody isotypes (control molecules) were applied to the external bathing solution (2.2 µM - 0.5 nM, diluted in the extracellular solution). KnotBodies KB_A12 and KB_A07 (EETI-II fusions) were used as isotype controls for the testing. From a holding voltage of -80 mV a depolarising, activating voltage pulses of +30 or +80 mV were applied for 300 ms, every 5 or 10 seconds. The elicited, maximum outward current values measured during the activating step for each solution exchange period were averaged (n = 3 - 8 for each concentration applied) and plotted as concentration-response curves. KB_A07_ShK, KB_A12_ShK and KB_A07_Kaliotoxin (KTX) fusion proteins all inhibited the huKv1.3 currents in a concentration dependent manner with IC50S of approximately 20 nM, 40 nM and 900 nM respectively.

human Kv1.3 (huKv1.3) = target: T2, human Kv1.3 (huKv1.3) (Homo sapiens, UniProt P22001); assay: QPatch automated patch-clamp, CHO cells stably expressing human Kv1.3 (Examples 19-21)
T2 construct: host or cells: CHO
T2 sequence (P22001 whole entry): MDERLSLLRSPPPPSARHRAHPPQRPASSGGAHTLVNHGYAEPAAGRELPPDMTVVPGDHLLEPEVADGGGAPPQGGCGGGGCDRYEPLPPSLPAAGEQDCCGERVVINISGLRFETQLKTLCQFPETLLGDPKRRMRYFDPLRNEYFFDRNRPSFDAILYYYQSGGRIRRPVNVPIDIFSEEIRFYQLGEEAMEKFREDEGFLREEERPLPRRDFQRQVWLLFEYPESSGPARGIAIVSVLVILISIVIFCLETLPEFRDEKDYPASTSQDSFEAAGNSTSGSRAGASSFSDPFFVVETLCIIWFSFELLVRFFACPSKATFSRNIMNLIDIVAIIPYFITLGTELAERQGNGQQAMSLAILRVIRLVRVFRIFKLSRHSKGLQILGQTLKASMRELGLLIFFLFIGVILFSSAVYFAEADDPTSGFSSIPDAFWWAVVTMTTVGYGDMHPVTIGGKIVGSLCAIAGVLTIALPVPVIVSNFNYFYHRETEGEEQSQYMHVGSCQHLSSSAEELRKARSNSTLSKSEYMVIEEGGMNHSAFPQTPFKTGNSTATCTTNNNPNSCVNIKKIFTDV
Method: The effect of these KnotBodies on cells expressing human Kv1.3 (huKv1.3) channel was assessed using the QPatch automated patch-clamp platform (Sophion, Ballerup, Denmark). For the testing of Kv1.3 ion channel currents, CHO cells stably expressing human Kv1.3 (GenBank accession number NM_002232.2; cell line catalogue number CT6133, Charles River Discovery, Cleveland, USA) were subjected to a QPatch electrophysiology assay in the presence or absence of the KnotBody fusions or the antibody isotypes (negative controls). Internal and external physiological solutions were freshly prepared prior to the assay. The extracellular solution contained 145 mM NaCl, 4 mM KC1, 2 mM CaC12, 1 mM MgC12, 10 mM HEPES and 10 mM glucose; the pH was adjusted to 7.4 with NaOH; the osmolarity was ~ 305 mOsm/L. The intracellular solution contained: KF (120 mM), KC1 (20 mM), HEPES (10 mM) EGTA (10 mM); the pH was adjusted to 7.2 with KOH; osmolarity was ~ 300 mOsm/L.
(§1) A series of depolarising voltage (channel activating) pulses were used to monitor the channel currents upon adding control (extracellular solution) to define a control baseline of current activity. To these measured control currents four, ascending concentrations of KnotBodies (including KB_A12_ShK and KB_A12_KTX as previously described in Example 8) or parental antibody isotypes (control molecules) were applied to the external bathing solution. KnotBodies KB_A12 and KB_A07 (EETI-II fusions) were used as isotype controls for the testing. From a holding voltage of -80 mV a depolarising, activating voltage pulses of +30 mV were applied for 300 ms, every 10 seconds. The elicited, maximum outward current values measured during the activating step for each solution exchange period, averaged (n = 3 - 6 for each concentration applied) and plotted as concentration-response curves (see FIG. 32). From these concentration-response curves IC50 values were calculated.
(§2) For the testing of Kv1.1 and Kv1.3, CHO-S expressing huKv1.1 (described above) or CHO cells stably expressing huKv1.3 (Charles River Lab) were analysed using the QPatch electrophysiology assay in the presence or absence of the KnotBody fusions. Internal and external physiological solutions were freshly prepared prior to the assay. The extracellular solution contained 145 mM NaCl, 4 mM KC1, 2 mM CaC12, 1 mM MgC12, 10 mM HEPES and 10 mM glucose; the pH was adjusted to 7.4 with NaOH; the osmolarity was ~ 305 mOsm/L. The intracellular solution contained: KF (120 mM), KC1 (20 mM), HEPES (10 mM) EGTA (10 mM); the pH was adjusted to 7.2 with KOH; osmolarity was ~ 300 mOsm/L.
as §1, with “(including previously described” for “(including”, “KB_A12_KTX” for “KB_A12_KTX as previously”, “[…]” for “+30 mV”, “33).” for “32).”, “calculated (see Table E20).” for “calculated.”
(§3) For the testing of Kv1.1 and Kv1.3, CHO-S expressing huKv1.1 (see Example 20 and below) or CHO cells stably expressing huKv1.3 (Charles River Lab) were analysed using the QPatch electrophysiology assay in the presence or absence of the KnotBody fusions - see details in Examples 19 and 20.

human Kv1.1 (huKv1.1) = target: T3, human Kv1.1 (huKv1.1) (Homo sapiens, UniProt Q09470); assay: QPatch automated patch-clamp, CHO-S cells expressing huKv1.1 (Examples 20-21); conditions: four-point curves of FIG. 33, Table E20
T3 construct: expressed in transfected cells; host or cells: Freestyle CHO-S
T3 sequence (Q09470 whole entry): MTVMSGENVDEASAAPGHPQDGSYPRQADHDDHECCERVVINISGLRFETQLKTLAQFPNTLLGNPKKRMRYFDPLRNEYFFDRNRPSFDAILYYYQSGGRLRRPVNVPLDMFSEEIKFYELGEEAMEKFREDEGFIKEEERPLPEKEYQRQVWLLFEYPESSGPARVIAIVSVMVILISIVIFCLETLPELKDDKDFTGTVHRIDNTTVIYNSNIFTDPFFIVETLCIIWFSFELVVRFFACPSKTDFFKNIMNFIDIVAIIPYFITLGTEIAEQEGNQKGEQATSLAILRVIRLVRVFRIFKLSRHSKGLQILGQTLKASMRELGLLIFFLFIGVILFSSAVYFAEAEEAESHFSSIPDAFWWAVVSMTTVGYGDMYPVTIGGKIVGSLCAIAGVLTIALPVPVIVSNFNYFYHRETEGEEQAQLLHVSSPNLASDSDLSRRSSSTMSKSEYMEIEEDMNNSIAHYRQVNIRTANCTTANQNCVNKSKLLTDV
Method: 1. The effect of these KnotBodies on cells expressing human Kv1.1 (huKv1.1) and Kv1.3 (huKv1.3) channels was assessed using QPatch automated patch-clamp platform (Sophion).
To generate huKv1.1 expressing cells, Freestyle CHO-S cells (Cat. no. R80007, Life Technologies, California, USA) were transfected with pINT50-Tr plasmid encoding huKv1.1 gene using the MaxCyte STX (MaxCyte) transfection system. In pINT50-Tr plasmid, huKv1.1 gene is under the control of a CMV promoter. 64 µg of the plasmid DNA were added to 400 µl of Freestyle CHO-S cells (at a density of 1 × 10^8 cells/ml) in Electroporation Buffer (GE Healthcare Life Sciences, Cat. no. EPB1) in an OC-400 processing assembly (MaxCyte). Following electroporation, the cells were transferred to a well of a 24-well plate containing 200 U/ml DNAse I (Sigma, D4263) and incubated for 20 minutes at 37° C. and 5% CO2. The cells were then transferred into a 100 ml shaker flask containing 20 ml of CD Opticho Media (Thermo Fisher Scientific, Cat.No 12681-011,) supplemented with 8 mM L-Glut (Thermo Fisher Scientific, cat. no. 25030-024). The cells were incubated for 24 hours at 37° C. and 5% CO2 (and 75% humidity and shaking at 800 rpm) prior to testing using automated patch clamp electrophysiology.
as §2
as §1, with “(including previously described” for “(including”, “KB_A12_KTX” for “KB_A12_KTX as previously”, “[…]” for “+30 mV”, “33).” for “32).”, “calculated (see Table E20).” for “calculated.”
as §3
In addition to the CHO-S transiently expressing huKv1.1 (described in Example 20), CHO-S cells with poly-clonal stable expression of huKv1.1 cells were also made and used in the QPatch electrophysiology assay. To generate the polyclonal stable huKv1.1 cells from the transiently expressing cells described in Example 20, after a 24 hour incubation period the selection antibiotic Puromycin (catalogue no. A1 1138-03, Life Technologies, California, USA) was added to culture media. Then, for the first 14 days puromycin was at 10 µg ml-1 media; at days 15-28 puromycin was at 20 µg ml-1 media. Cell cultures were seeded at 2.5 x 10^5 cells ml^-1 into fresh culture media and puromycin twice per week through this selection growth period. […]

T1 sequence (P22001 whole entry): as the sequence (P22001 whole entry) above

B1: KB_A12_KTX: kaliotoxin in VL CDR2 of KB_A12, IgG1 (antibody)
VH: EVQLVESGGGLVRPGGSLRLSCAASGFTFSSYAMSWVRQAPGKGLEWVSAISGSGGSTYYADSVKGRFTISRDNTKNSLYLQMTSLRADDTAFYYCVKDFGPGYGTGWFDYWGPGTLVTVSS
VL: QSVLTQPPSVSEAPRQRVTITCSGSSSNIGNNAVNWYQQLPGKAPKLLIYAAGRGVEINVKCSGSPQCLKPCKDAGMRFGKCMNRKCHCTPKANSGVSDRFSAAKSGTSASLAINGLRSEDEADYYCAAWDDSLNGYVFGTGTKLTVLGQP
IC50 (huKv1.3): > 10000 nM
Fold difference (human Kv1.3 (huKv1.3); Kv1.1 IC50 over Kv1.3 IC50, Table E20): 3
IC50 (human Kv1.3 (huKv1.3); four-point curves of FIG. 33, Table E20, read-out: Kv1.3 IC50): 1540 nM
IC50 (human Kv1.3 (huKv1.3); huKv1.3, four-point curves of FIG. 32, Table E19, read-out: IC50): 430 nM
IC50 (human Kv1.1 (huKv1.1)): 4800 nM
